Data reported in publication PMC11098746 (2024).

B1: ADP136 (protein)
chain: MVRIAGALRTLLPLLAALLQASVEASGEIALCKTGFPEDVYSAVLSKDVHEGQPLLNVKFSNCNGKRKVQYESSEPADFKVDEDGMVYAVRSFPLSSEHAKFLIYAQDKETQEKWQVAVKLSLKPTLTEESVKESAEVEEIVFPRQFSKHSGHLQRQKRDWVIPPINLPENSRGPFPQELVRIRSDRDKNLSLRYSVTGPGADQPPTGIFIINPISGQLSVTKPLDREQIARFHLRAHAVDINGNQVENPIDIVINVIDMNDNRPEFLHQVWNGTVPEGSKPGTYVMTVTAIDADDPNALNGMLRYRIVSQAPSTPSPNMFTINNETGDIITVAAGLDREKVQQYTLIIQATDMEGNPTYGLSNTATAVITVTDVNDNPPEFTAMTFYGEVPENRVDIIVANLTVTDKDQPHTPAWNAVYRISGGDPTGRFAIQTDPNSNDGLVTVVKPIDFETNRMFVLTVAAENQVPLAKGIQHPPQSTATVSVTVIDVNENPYFAPNPKIIRQEEGLHAGTMLTTFTAQDPDRYMQQNIRYTKLSDPANWLKIDPVNGQITTIAVLDRESPNVKNNIYNATFLASDNGIPPMSGTGTLQIYLLDINDNAPQVLPQEAETCETPDPNSINITALDYDIDPNAGPFAFDLPLSPVTIKRNWTITRLNGDFAQLNLKIKFLEAGIYEVPIIITDSGNPPKSNISILRVKVCQCDSNGDCTDVDRIVGAGLGT
modifications: bait human Fc-tagged dimer
B2: ADP296 (protein)
chain: MARERGALSRASRALRLAPFVYLLLIQTDPLEGVNITSPVRLIHGTVGKSALLSVQYSSTSSDRPVVKWQLKRDKPVTVVQSIGTEVIGTLRPDYRDRIRLFENGSLLLSDLQLADEGTYEVEISITDDTFTGEKTINLTVDVPISRPQVLVASTTVLELSEAFTLNCSHENGTKPSYTWLKDGKPLLNDSRMLLSPDQKVLTITRVLMEDDDLYSCMVENPISQGRSLPVKITVYRRSS
modifications: bait human Fc-tagged dimer
B3: ADP374 (protein)
chain: MKETLYDEVLAKQKREQKLIPTKTDKKKAEKKKNKKKEIQNGNLHESDSESVPRDFKLSDALAVEDDQVAPVPLNVVETSSSVRERKKKEKKQKPVLEEQVIKESDASKIPGKKVEPVPVTKQPTPPSEAAASKKKPGQKKSKNGSDDQDKKVETLMVPSKRQEALPLHQETKQESGSGKKKASSKKQKTENVFVDEPLIHATTYIPLMDNADSSPVVDKREVIDLLKPDQVEGIQKSGTKKLKTETDKENAEVKFKDFLLSLKTMMFSEDEALCVVDLLKEKSGVIQDALKKSSKGELTTLIHQLQEKDKLLAAVKEDAAATKDRCKQLTQEMMTEKERSNVVITRMKDRIGTLEKEHNVFQNKIHVSYQETQQMQMKFQQVREQMEAEIAHLKQENGILRDAVSNTTNQLESKQSAELNKLRQDYARLVNELTEKTGKLQQEEVQKKNAEQAATQLKVQLQEAERRWEEVQSYIRKRTAEHEAAQQDLQSKFVAKENEVQSLHSKLTDTLVSKQQLEQRLMQLMESEQKRVNKEESLQMQVQDILEQNEALKAQIQQFHSQIAAQTSASVLAEELHKVIAEKDKQIKQTEDSLASERDRLTSKEEELKDIQNMNFLLKAEVQKLQALANEQAAAAHELEKMQQSVYVKDDKIRLLEEQLQHEISNKMEEFKILNDQNKALKSEVQKLQTLVSEQPNKDVVEQMEKCIQEKDEKLKTVEELLETGLIQVATKEEELNAIRTENSSLTKEVQDLKAKQNDQVSFASLVEELKKVIHEKDGKIKSVEELLEAELLKVANKEKTVQDLKQEIKALKEEIGNVQLEKAQQLSITSKVQELQNLLKGKEEQMNTMKAVLEEKEKDLANTGKWLQDLQEENESLKAHVQEVAQHNLKEASSASQFEELEIVLKEKENELKRLEAMLKERESDLSSKTQLLQDVQDENKLFKSQIEQLKQQNYQQASSFPPHEELLKVISEREKEISGLWNELDSLKDAVEHQRKKNNDLREKNWEAMEALASTEKMLQDKVNKTSKERQQQVEAVELEAKEVLKKLFPKVSVPSNLSYGEWLHGFEKKAKECMAGTSGSEEVKVLEHKLKEADEMHTLLQLECEKYKSVLAETEGILQKLQRSVEQEENKWKVKVDESHKTIKQMQSSFTSSEQELERLRSENKDIENLRREREHLEMELEKAEMERSTYVTEVRELKDLLTELQKKLDDSYSEAVRQNEELNLLKAQLNETLTKLRTEQNERQKVAGDLHKAQQSLELIQSKIVKAAGDTTVIENSDVSPETESSEKETMSVSLNQTVTQLQQLLQAVNQQLTKEKEHYQVLE
modifications: bait human Fc-tagged dimer

target: Circumsporozoite protein (CSP) (Plasmodium falciparum (isolate 3D7), UniProt Q7K740); assay: AVEXIS screen signal:noise (double-corrected)
Sequence (Q7K740 19-374): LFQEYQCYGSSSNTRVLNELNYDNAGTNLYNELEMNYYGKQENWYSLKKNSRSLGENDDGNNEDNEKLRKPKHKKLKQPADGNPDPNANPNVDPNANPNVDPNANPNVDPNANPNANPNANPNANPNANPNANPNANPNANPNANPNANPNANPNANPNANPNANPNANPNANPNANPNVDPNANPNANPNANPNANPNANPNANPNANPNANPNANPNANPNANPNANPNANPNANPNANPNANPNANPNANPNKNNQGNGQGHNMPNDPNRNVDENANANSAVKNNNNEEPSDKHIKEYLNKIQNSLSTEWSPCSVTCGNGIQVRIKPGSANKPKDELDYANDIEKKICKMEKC

| Binder | binding score |
| --- | --- |
| B1 | 1.73 |
| B2 | 0.997 |
| B3 | 0.547 |
